This passage reports EC50 results from US20230395187A1.

The assay addresses SARS-CoV-2 spike protein, delta (SARS-CoV-2) (UniProt P0DTC2). Nature of the assay: virus-free Luminex binding assay, spike on beads.

Broadly, the EC50 is the concentration giving half of the maximal effect. Regarding Imdevimab (RGN87) (antibody), the EC50 was 0.17 µg/mL.
